From the Human Domainome abundance scans (Beltran et al. 2025)
± gives the uncertainty stated by the source.

B1: Membrane-associated guanylate kinase, WW and PDZ domain-containing protein 2, residues 296 to 340; numbered along this chain, Q86UL8 (parent)
chain: EDNEEPDPLPDNWEMAYTEKGEVYFIDHNTKTTSWLDPRLAKKAK
B2: Poly(rC)-binding protein 1, residues 278 to 350; numbered along this chain, Q15365 (parent)
chain: TQTTHELTIPNNLIGCIIGRQGANINEIRQMSGAQIKIANPVEGSSGRQVTITGSAASISLAQYLINARLSSE

Variants of: B1
Experiment: abundance fitness (aPCA) (normalised: wild type 0, dead -1); higher = more abundant; growth selection in yeast, the domain comes from the species named
Conditions: Homo sapiens

Row | Variant | abundance fitness
1 | T18F | -0.953 ± 0.11
2 | T18K | -0.476 ± 0.16
3 | T18E | -0.574 ± 0.3
4 | T18C | -0.454 ± 0.061
5 | T18Q | -0.849 ± 0.09
6 | T18I | -0.997 ± 0.14
7 | T18Y | -0.93 ± 0.25
8 | T18L | -0.514 ± 0.064
9 | T18G | -0.354 ± 0.048
10 | T18A | -0.308 ± 0.061
11 | T18N | -0.382 ± 0.18
12 | T18S | -0.048 ± 0.077
13 | T18R | -0.91 ± 0.073
14 | T18P | -1.08 ± 0.13
15 | T18W | -0.725 ± 0.11
16 | P8L | 0.021 ± 0.058
17 | P8M | 0.019 ± 0.074
18 | P8D | -0.121 ± 0.093
19 | P8E | -0.069 ± 0.056
20 | P8S | -0.056 ± 0.056
21 | P8I | -0.156 ± 0.096
22 | P8Y | -0.228 ± 0.12
23 | P8A | -0.014 ± 0.054
24 | P8T | -0.035 ± 0.059
25 | P8R | 0.052 ± 0.062
26 | P8H | -0.105 ± 0.058
27 | P8G | -0.03 ± 0.044

Row | Variant | abundance fitness
28 | D2E | -0.131 ± 0.15
29 | D2R | 0.05 ± 0.054
30 | D2L | 0.072 ± 0.064
31 | D2Y | 0.063 ± 0.4
32 | D2V | 0.074 ± 0.05
33 | D2C | 0.256 ± 0.12
34 | D2S | 0.068 ± 0.07
35 | D2N | 0.072 ± 0.053
36 | D2A | 0.125 ± 0.071
37 | D2P | -0.01 ± 0.11
38 | D2K | 0.116 ± 0.066
39 | D2W | -0.029 ± 0.064
40 | D2Q | 0.08 ± 0.14
41 | E19N | 0.031 ± 0.071
42 | E19I | -0.117 ± 0.1
43 | E19P | -0.013 ± 0.062
44 | E19K | -0.031 ± 0.07
45 | E19G | -0.107 ± 0.043
46 | E19W | -0.319 ± 0.062
47 | E19D | -0.025 ± 0.086
48 | E19V | -0.079 ± 0.056
49 | E19S | -0.021 ± 0.066
50 | E19L | -0.091 ± 0.053
51 | E19Q | 0.02 ± 0.097
52 | E19T | 0.018 ± 0.046
53 | E19R | -0.104 ± 0.041
54 | E19A | 0.054 ± 0.052

Variants of: B2
Experiment: as above
Conditions: Homo sapiens

Row | Variant | abundance fitness
55 | R69H | -0.405 ± 0.17
56 | R69S | -0.081 ± 0.096
57 | R69F | 0.355 ± 0.26
58 | R69I | -0.258 ± 0.24
59 | R69K | 0.119 ± 0.12
60 | R69W | -0.596 ± 0.18
61 | R69M | -0.414 ± 0.21
62 | R69C | -0.344 ± 0.18
63 | R69E | -0.371 ± 0.16
64 | R69L | -0.328 ± 0.11
65 | R69G | -0.626 ± 0.14
66 | R69T | -0.079 ± 0.093
67 | R69P | -0.701 ± 0.22
68 | R69Q | -0.016 ± 0.18
69 | R69A | -0.067 ± 0.1
70 | R69V | -0.479 ± 0.14
71 | E73V | 0.182 ± 0.17
72 | E73L | -0.004 ± 0.19
73 | E73R | -0.019 ± 0.12
74 | E73S | 0.302 ± 0.21
75 | E73D | 0.212 ± 0.2
76 | E73A | 0.078 ± 0.42
77 | E73G | -0.016 ± 0.1

Row | Variant | abundance fitness
78 | E73F | 0.315 ± 0.48
79 | E73C | -0.14 ± 0.17
80 | E73M | 0.245 ± 0.17
81 | E73T | -0.03 ± 0.29
82 | E73P | -0.161 ± 0.41
83 | E73W | -0.325 ± 0.45
84 | A68N | 0.163 ± 0.14
85 | A68V | -0.185 ± 0.07
86 | A68Q | 0.14 ± 0.11
87 | A68S | 0.048 ± 0.078
88 | A68L | -0.206 ± 0.084
89 | A68H | 0.188 ± 0.2
90 | A68E | 0.21 ± 0.081
91 | A68G | -0.122 ± 0.056
92 | A68M | -0.032 ± 0.1
93 | A68C | 0.271 ± 0.14
94 | A68I | -0.296 ± 0.21
95 | A68R | -0.001 ± 0.061
96 | A68W | -0.581 ± 0.17
97 | A68F | -0.459 ± 0.35
98 | N67P | -0.782 ± 0.26
99 | N67G | -0.082 ± 0.051
100 | N67H | -0.146 ± 0.13

Row | Variant | abundance fitness
101 | N67T | -0.148 ± 0.12
102 | N67I | -0.194 ± 0.22
103 | N67C | -0.193 ± 0.26
104 | N67K | -0.137 ± 0.12
105 | N67E | -0.082 ± 0.075
106 | N67F | 0.034 ± 0.18
107 | N67A | -0.152 ± 0.079
108 | N67L | -0.18 ± 0.079
109 | N67Y | 0.002 ± 0.13
110 | N67D | 0.066 ± 0.099
111 | N67M | -0.135 ± 0.089
112 | N67R | -0.147 ± 0.057
113 | N67W | -0.208 ± 0.078
114 | N67Q | -0.32 ± 0.11
115 | N67S | -0.019 ± 0.072
116 | N67V | -0.504 ± 0.11
117 | I66R | -0.996 ± 0.23
118 | I66S | -0.721 ± 0.2
119 | I66L | -0.076 ± 0.13
120 | I66P | -0.459 ± 0.15
121 | I66H | 0.299 ± 0.49
122 | I66M | -0.094 ± 0.16
123 | I66V | -0.285 ± 0.1

Row | Variant | abundance fitness
124 | I66Q | -1.16 ± 0.46
125 | I66W | -1.2 ± 0.35
126 | L70I | -0.217 ± 0.36
127 | L70P | -0.499 ± 0.25
128 | L70R | -0.53 ± 0.22
129 | L70S | -0.614 ± 0.34
130 | L70K | -0.378 ± 0.46
131 | L70M | -0.228 ± 0.26
132 | L70V | -0.05 ± 0.15
133 | L70W | -0.521 ± 0.29
134 | L70N | -0.465 ± 0.48
135 | S72T | 0.222 ± 0.087
136 | S72A | -0.039 ± 0.093
137 | S72V | -0.072 ± 0.094
138 | S72Q | -0.401 ± 0.26
139 | S72G | -0.031 ± 0.071
140 | S72R | 0.123 ± 0.077
141 | S72K | -0.072 ± 0.22
142 | S72D | -0.107 ± 0.25
143 | S72P | -0.562 ± 0.38
144 | S72I | -0.448 ± 0.39
145 | S72H | -0.07 ± 0.2
146 | S72C | -0.052 ± 0.16

Row | Variant | abundance fitness
147 | S72Y | -0.152 ± 0.28
148 | S72M | -0.058 ± 0.13
149 | S72L | -0.114 ± 0.088
150 | S72E | 0.222 ± 0.11
151 | S72N | 0.161 ± 0.23
152 | S71M | 0.105 ± 0.074
153 | S71T | -0.092 ± 0.068
154 | S71I | -0.434 ± 0.24
155 | S71F | -0.21 ± 0.14
156 | S71P | 0.024 ± 0.06
157 | S71A | -0.037 ± 0.051
158 | S71D | -0.044 ± 0.1
159 | S71R | -0.056 ± 0.041
160 | S71G | -0.062 ± 0.049
161 | S71Q | -0.194 ± 0.11
162 | S71H | -0.371 ± 0.28
163 | S71K | -0.03 ± 0.09
164 | S71V | -0.14 ± 0.061
165 | S71W | -0.195 ± 0.075
166 | S71L | -0.184 ± 0.054
167 | S71Y | -0.258 ± 0.14
